# T1: PavMYB.C2 (Prunus avium (sweet cherry), UniProt A0A6P5T6R9 1-74)
# T1 sequence: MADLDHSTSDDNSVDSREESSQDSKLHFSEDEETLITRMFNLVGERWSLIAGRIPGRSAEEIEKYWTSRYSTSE
# Target: T1, PavMYB.C2
# Assay: EMSA; EMSA/Gel-Shift Kit (Beyotime) with LightShift chemiluminescent EMSA kit (Thermo Fisher), standard protocol; buffer, salt, pH and temperature not stated
# Conditions: protein: recombinant; tags: GST (pGEX-4T-1); label: 3' biotin (Methods); blunt
row,Binder,binding result
1,UFGT promoter MBS1 probe (dsDNA) DNA 1: GATCGATATTTAGAGAGAGAAACAACCACCCGCGTGATGTGTGAGAGAAA DNA 2: TTTCTCTCACACATCACGCGGGTGGTTGTTTCTCTCTCTAAATATCGATC,no binding
2,UFGT promoter MBS2 probe (dsDNA) DNA 1: TGAGAGAAAGAAATAAAAATCAGAAACAAAGGTAGCGTTTTTCTTTCTTT DNA 2: AAAGAAAGAAAAACGCTACCTTTGTTTCTGATTTTTATTTCTTTCTCTCA,no binding
3,UFGT promoter MBS3 probe (dsDNA) DNA 1: TTCACTCCTCGACTCAGCAAGTGGTTATTTAGTGGTAGAGTTTGTTTTGA DNA 2: TCAAAACAAACTCTACCACTAAATAACCACTTGCTGAGTCGAGGAGTGAA,binds

# Reference: PMC12185008, “The PavMYB.C2-UFGT module contributes to fruit coloration via modulating anthocyanin biosynthesis in sweet cherry”
